Laboratory results taken from the supplement of paper PMC10567573.

Assay: protein stability index of a GFP-peptide fusion (GPS, HEK-293T) (PSI 1-6); higher = more stable
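Also: lentivirally expressed fusions sorted by FACS into six bins by GFP to DsRed ratio, PSI derived from sequencing read proportions per bin multiplied by bin number.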

B1: JUNB WT (peptide)
chain: FVKALDDLHKMNHVTPPNVSLGAT
protein stability index (parent: IOH27814_24, c terminus: a fixed tail appended): 1.94

B2: OR3A1 WT (peptide)
chain: PMYFFLGNLSVLDVGCISVTVPSM
protein stability index (parent: IOH28412_11, c terminus: a fixed tail appended): 2.98

B3: DCAF4 WT (peptide)
chain: DSHILLCLMGLAETPGCATLLPAS
protein stability index (parent: IOH28737_24, c terminus: a fixed tail appended): 2.86

B4: WASL WT (peptide)
chain: YPPPPPALPSSAPSGPPPPPPSVL
protein stability index (parent: IOH28816_58, c terminus: a fixed tail appended): 4.3

B5: FBF1 WT (peptide)
chain: QLQCSPAELQAELLHSQARLAELE
protein stability index (parent: IOH27821_96, c terminus: a fixed tail appended): 3.22

B6: DCAF4 WT (peptide)
chain: PGIDRPGMLCSFRIPGAWSCAWSL
protein stability index (parent: IOH28737_29, c terminus: a fixed tail appended): 2.84

B7: ZNF8 WT (peptide)
chain: KPYTCSVCGKSFSRTTCLFLHLRT
protein stability index (parent: IOH28719_62, c terminus: a fixed tail appended): 2.03

B8: DLC1 WT (peptide)
chain: RDAIEALCRRLNTLNKCAVMKLEI
protein stability index (parent: IOH28890_83, c terminus: a fixed tail appended): 2.68

B9: FBF1 WT (peptide)
chain: FGDSPKAEKRQIGDQEGPRPARST
protein stability index (parent: IOH27821_37, c terminus: a fixed tail appended): 4.98

B10: KRT34 WT (peptide)
chain: PTVDLNQVLNETRSQYEALVETNR
protein stability index (parent: IOH28032_44, c terminus: a fixed tail appended): 3.1

B11: C6orf223 WT (peptide)
chain: TLARMSRRTRGPVERAAAAAAAAA
protein stability index (parent: IOH28619_19, c terminus: a fixed tail appended): 2.35

B12: RPAIN WT (peptide)
chain: ISEYEKSLQFDEKCLSIMLAEWEA
protein stability index (parent: IOH28888_19, c terminus: a fixed tail appended): 1.85

B13: ZNF8 WT (peptide)
chain: RTHTGEKPYTCSVCGKSFSRTTCL
protein stability index (parent: IOH28719_61, c terminus: a fixed tail appended): 2.43

B14: DLC1 WT (peptide)
chain: KRSWEEHVTHWMGQPFNSDDRNTA
protein stability index (parent: IOH28890_2, c terminus: a fixed tail appended): 2.65

B15: FBF1 WT (peptide)
chain: YQRPQDSEDMWGDEDFTFGAYQPT
protein stability index (parent: IOH27821_46, c terminus: a fixed tail appended): 2.9

B16: DLC1 WT (peptide)
chain: HVTHWMGQPFNSDDRNTACHHGLV
protein stability index (parent: IOH28890_3, c terminus: a fixed tail appended): 2.14

B17: MAGEA6 WT (peptide)
chain: KISGGPRISYPLLHEWALREGEE
protein stability index (parent: IOH28024_53, c terminus: native): 2.93

B18: FBF1 WT (peptide)
chain: LQRASILDMRRDHEEQLQRLKLLK
protein stability index (parent: IOH27821_117, c terminus: a fixed tail appended): 3.67

B19: DLC1 WT (peptide)
chain: NDDSADYQHFLQDCVDGLFKEVKE
protein stability index (parent: IOH28890_220, c terminus: a fixed tail appended): 2.66

B20: DLC1 WT (peptide)
chain: AIQGISEKEKAEIEAKEACDWLRA
protein stability index (parent: IOH28890_74, c terminus: a fixed tail appended): 4.41

B21: DCAF4 WT (peptide)
chain: TTKCVRQYEGHVNEYAYLPLHVHE
protein stability index (parent: IOH28737_51, c terminus: a fixed tail appended): 2.65

B22: ZNF8 WT (peptide)
chain: VHVIGVEEPSVGASMLFDIREST
protein stability index (parent: IOH28719_96, c terminus: native): 2.07

B23: ZNF8 WT (peptide)
chain: SLGRHKRTHTGEKPYTCSVCGKSF
protein stability index (parent: IOH28719_60, c terminus: a fixed tail appended): 2.55

B24: CPOX WT (peptide)
chain: HAPTIHFNYRYFEVEEADGNKQWW
protein stability index (parent: IOH27839_43, c terminus: a fixed tail appended): 2.33

B25: ANKRD44 WT (peptide)
chain: FHCIETLVTTGANVNETDDWGRTA
protein stability index (parent: IOH28621_76, c terminus: a fixed tail appended): 1.99

B26: ZNF8 WT (peptide)
chain: RIHTGERPYMCKECGKAFSQNSSL
protein stability index (parent: IOH28719_47, c terminus: a fixed tail appended): 2.6

B27: KRT34 WT (peptide)
chain: YQSYFKTIEELQQKILCAKAENAR
protein stability index (parent: IOH28032_25, c terminus: a fixed tail appended): 1.83
